Substitutions are numbered along the chain they refer to.

The assay addresses T1, CD123 Protein, His Tag, Acro Biosciences Cat. No. ILA-H52H6 (Homo sapiens (Human), UniProt P26951 19-305).
T1 construct: Bought protein; not shown: His tag
T1 sequence: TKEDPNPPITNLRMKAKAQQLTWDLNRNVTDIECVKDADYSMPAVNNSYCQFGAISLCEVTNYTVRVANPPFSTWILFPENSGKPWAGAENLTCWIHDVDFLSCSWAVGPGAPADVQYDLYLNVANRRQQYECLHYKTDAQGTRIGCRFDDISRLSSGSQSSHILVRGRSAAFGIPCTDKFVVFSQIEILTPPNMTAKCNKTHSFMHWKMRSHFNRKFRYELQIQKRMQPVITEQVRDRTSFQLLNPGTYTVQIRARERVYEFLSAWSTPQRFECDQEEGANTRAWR
Description: BLI, IgG on anti-human Fc sensor, 50 nM CD123, pH 7.4 and pH 5.4. The source says:
We selected IMGN632 (Heavy chain SEQ ID NO: 1, Light chain SEQ ID NO: 2) as a CD123-binding monoclonal antibody for pH engineering via histidine scanning. Briefly, CDRs in the heavy chain were identified using the methods described by Kabat et al (Kabat et al. (1992) Sequences of Proteins of Immunological Interest, DIANE publishing) and IMGT (Lefranc M P (1999) “The IMGT unique numbering for Immunoglobulins, T cell receptors and Ig-like domains” The Immunologist 7, 132-136), and for each CDR, residues falling under either or both Kabat and IMGT CDR definitions were called as CDR residues. To generate pH-dependent sequence variants, individual amino acid residues within the heavy chain CDRs were systematically substituted with a histidine, one at a time (MYT1252-MYT1292). In cases where the starting CDR residue was a histidine, it was mutated to an alanine. Antibody variants with only one histidine or alanine mutation in a heavy chain CDR were generated by co-transfection of Expi293 cells with a) one heavy chain sequence variant, and b) the corresponding starting ABPC light chain using methods known to the art. After allowing for four days of protein expression, cell culture supernatants were collected, quantified by SDS-PAGE analysis (FIG. 1), and the pH dependence of the variant was evaluated using biolayer interferometry (BLI) on an Octet RED 384 instrument. For constructs MYT1252, MYT1254-MYT1287, and MYT1289-1292, 104, of cell culture supernatant was diluted into 1904, of 1× PBST pH 7.4. For MYT1253 and MYT1288 254, and 504, of cell culture supernatant was diluted into 1754, and 1504, respectively. […] The resulting diluted supernatants were then captured on an anti-human Fc sensor (Forte Bio). A baseline was established using 1× PBST (50 mM Potassium Phosphate Buffer+150 mM NaCl+0.05% Tween 20) pH 7.4, and the sensor was associated with 50 nM of CD123 (CD123 Protein, His Tag, Acro Biosciences Cat. No. ILA-H52H6, Lot No. 1741d-89CF1-KB) in 1×PBST pH 7.4 for 120 sec to generate an association curve. In the dissociation phase, the antibody-antigen complex on the sensor was exposed to 1× PBST pH 7.4 for 300-600 sec. Baseline, association, and dissociation were repeated using 1×PBST pH 5.4 throughout in a separate condition.

B1: MYT1253 (antibody, V domains shown)
VH: QVQLVQSGAEVKKPGASVKVSCKASGHIFTSSIMHWVRQAPGQGLEWIGYIKPYNDGTKYNEKFKGRATLTSDRSTSTAYMELSSLRSEDTAVYYCAREGGNDYYDTMDYWGQGTLVTVSS
VL: DIQMTQSPSSLSASVGDRVTITCRASQDINSYLSWFQQKPGKAPKTLIYRVNRLVDGVPSRFSGSGSGNDYTLTISSLQPEDFATYYCLQYDAFPYTFGQGTKVEIK
notes: IgG
On to B1, for which the binding result is recorded as “binds”.

B2: MYT1273 (antibody, V domains shown)
VH: B1 VH with H27Y, N61H
VL: B1 VL
notes: IgG
As for B2, the binding result is “binds”.

B3: MYT1279 (antibody, V domains shown)
VH: B1 VH with H27Y, A97H
VL: B1 VL
notes: IgG
B3: the binding result is “binds”.

B4: MYT1252 (antibody, V domains shown)
VH: B1 VH with G26H, H27Y
VL: B1 VL
notes: IgG
In the case of B4, the binding result was “binds”.

B5: MYT1269 (antibody, V domains shown)
VH: B1 VH with H27Y, G57H
VL: B1 VL
notes: IgG
Turning to B5, the binding result is “binds”.

B6: MYT1284 (antibody, V domains shown)
VH: B1 VH with H27Y, N102H
VL: B1 VL
notes: IgG
Regarding B6, the binding result is given as “binds”.

B7: MYT1278 (antibody, V domains shown)
VH: B1 VH with H27Y, G66H
VL: B1 VL
notes: IgG
In the case of B7, the binding result is on record as “binds”.

B8: MYT1271 (antibody, V domains shown)
VH: B1 VH with H27Y, K59H
VL: B1 VL
notes: IgG
Take B8: the binding result is recorded as “binds”.

B9: MYT1268 (antibody, V domains shown)
VH: B1 VH with H27Y, D56H
VL: B1 VL
notes: IgG
With B9, the binding result is reported as “binds”.

B10: MYT1267 (antibody, V domains shown)
VH: B1 VH with H27Y, N55H
VL: B1 VL
notes: IgG
With B10, the binding result is given as “binds”.

B11: MYT1277 (antibody, V domains shown)
VH: B1 VH with H27Y, K65H
VL: B1 VL
notes: IgG
As to B11, the binding result was “binds”.

B12: MYT1272 (antibody, V domains shown)
VH: B1 VH with H27Y, Y60H
VL: B1 VL
notes: IgG
In the case of B12, the binding result is reported as “binds”.

B13: MYT1275 (antibody, V domains shown)
VH: B1 VH with H27Y, K63H
VL: B1 VL
notes: IgG
In the case of B13, the binding result is recorded as “binds”.

B14: MYT1261 (antibody, V domains shown)
VH: B1 VH with H27Y, H35A
VL: B1 VL
notes: IgG
With B14, the binding result is listed as “binds”.

B15: MYT1283 (antibody, V domains shown)
VH: B1 VH with H27Y, G101H
VL: B1 VL
notes: IgG
As for B15, the binding result is given as “binds”.

B16: MYT1287 (antibody, V domains shown)
VH: B1 VH with H27Y, Y105H
VL: B1 VL
notes: IgG
As for B16, the binding result was “binds”.

B17: MYT1286 (antibody, V domains shown)
VH: B1 VH with H27Y, Y104H
VL: B1 VL
notes: IgG
On to B17, for which the binding result is “binds”.

B18: MYT1270 (antibody, V domains shown)
VH: B1 VH with H27Y, T58H
VL: B1 VL
notes: IgG
B18: the binding result was “binds”.

B19: MYT1263 (antibody, V domains shown)
VH: B1 VH with H27Y, I51H
VL: B1 VL
notes: IgG
Consider B19, for which the binding result is “binds”.

B20: MYT1257 (antibody, V domains shown)
VH: B1 VH with H27Y, S31H
VL: B1 VL
notes: IgG
In the case of B20, the binding result is given as “binds”.

B21: MYT1280 (antibody, V domains shown)
VH: B1 VH with H27Y, R98H
VL: B1 VL
notes: IgG
On to B21, for which the binding result is recorded as “binds”.

B22: MYT1266 (antibody, V domains shown)
VH: B1 VH with H27Y, Y54H
VL: B1 VL
notes: IgG
With B22, the binding result is on record as “binds”.

B23: MYT1254 (antibody, V domains shown)
VH: B1 VH with H27Y, I28H
VL: B1 VL
notes: IgG
Consider B23, for which the binding result was “binds”.

B24: MYT1262 (antibody, V domains shown)
VH: B1 VH with H27Y, Y50H
VL: B1 VL
notes: IgG
As for B24, the binding result is recorded as “binds”.

B25: MYT1259 (antibody, V domains shown)
VH: B1 VH with H27Y, I33H
VL: B1 VL
notes: IgG
Consider B25, for which the binding result was “binds”.

B26: MYT1255 (antibody, V domains shown)
VH: B1 VH with H27Y, F29H
VL: B1 VL
notes: IgG
For the molecule B26, the binding result is listed as “binds”.

B27: MYT1276 (antibody, V domains shown)
VH: B1 VH with H27Y, F64H
VL: B1 VL
notes: IgG
As for B27, the binding result is “binds”.

B28: MYT1285 (antibody, V domains shown)
VH: B1 VH with H27Y, D103H
VL: B1 VL
notes: IgG
B28: the binding result is reported as “binds”.

B29: MYT1260 (antibody, V domains shown)
VH: B1 VH with H27Y, M34H
VL: B1 VL
notes: IgG
For the molecule B29, the binding result is given as “binds”.

B30: MYT1265 (antibody, V domains shown)
VH: B1 VH with H27Y, P53H
VL: B1 VL
notes: IgG
Consider B30, for which the binding result is “binds”.

B31: MYT1282 (antibody, V domains shown)
VH: B1 VH with H27Y, G100H
VL: B1 VL
notes: IgG
B31: the binding result was “binds”.

B32: MYT1274 (antibody, V domains shown)
VH: B1 VH with H27Y, E62H
VL: B1 VL
notes: IgG
With B32, the binding result is reported as “binds”.

B33: MYT1256 (antibody, V domains shown)
VH: B1 VH with H27Y, T30H
VL: B1 VL
notes: IgG
For the molecule B33, the binding result is on record as “binds”.

B34: MYT1258 (antibody, V domains shown)
VH: B1 VH with H27Y, S32H
VL: B1 VL
notes: IgG
Take B34: the binding result is recorded as “binds”.

The values are drawn from patent publication US20220306751A1 (MYTHIC THERAPEUTICS, published 2022).
